Measured values published in paper PMC3763527.
Blank lines part the entries; values can stand above or below the substance they belong to.

How the values were obtained:
Experiment in all cases: optical tweezers force spectroscopy; single-chain clamp held by two 777-bp DNA handles between streptavidin on a biotinylated quartz slide and an anti-digoxigenin-coated 2 µm bead in the laser trap; stage moved at 100 nm/s; trap stiffness 0.15 pN/nm; buffer B (100 mM sodium phosphate, 150 mM sodium chloride, pH 7.2); rupture of the one subunit-subunit interface that can open within the chain
[1] = molecular target: single-chain E. coli β-clamp with cysteines at E64 (first subunit) and E314 (second subunit) (E. coli)
[2] = molecular target: single-chain E. coli β-clamp with cysteines at G102 (first subunit) and E298 (second subunit) (E. coli)
[3] = molecular target: single-chain S. cerevisiae PCNA with cysteines at D122 (first subunit) and D223 (third subunit) (S. cerevisiae)
[4] = molecular target: single-chain S. cerevisiae PCNA with cysteines at K107 (first subunit) and F185 (third subunit) (S. cerevisiae)

rupture force of the subunit interface [1]: 5.8 pN
Substance: single-chain E. coli β-clamp with cysteines at E64 (first subunit) and E314 (second subunit)

rupture force of the subunit interface [2]: 12 pN
Substance: single-chain E. coli β-clamp with cysteines at G102 (first subunit) and E298 (second subunit)

rupture force of the subunit interface [3]: 11 pN
Substance: single-chain S. cerevisiae PCNA with cysteines at D122 (first subunit) and D223 (third subunit)

rupture force of the subunit interface [4]: 1.7 pN
Substance: single-chain S. cerevisiae PCNA with cysteines at K107 (first subunit) and F185 (third subunit)
